Measured values: article PMC11098746 (2024)

B1: 26 (protein)
chain: KCIRLNNRAIYKNKYKNNVHIGTNENIRSIEKYSNVLCNSILCKNDKISSFINQRKNVDDDDESENDDMYESTTAGSSSETDNEADEEENDASDNNNADEEQIENSNNNNADEEQNDASSNDNNDEENEEQDDVMDNDQNDKKIKHSFNLANEAKHTKEERVKEEKKLKIYDFINDKEKRLNFNGDQKDEDNEENDDKDENTLENRNIISKHTSVFPGLYFIGIGYNLLFGNPLGEADSLIDPGYRAQIYLMEWALSKEGIANDLSTLQPVNGWIRKENACSRVESITECSSISDYTKSLSAEAKVSGSYWGIASFSASTGYSSFLHEVTKRSKKTFLVKSNCVKYTIGLPPYIPWDKTTAYKNAVNELPAVFTGLDKESECPSDVYEENKAKSNCENVALWMKFFDIYGTHIIYESQLGGKITKIINVATSSIEQMKKNGVSVKAKIQAQFGFGSAGGSTDVNSANSAANDEQSYDMNEQLIVIGGNPIKDVTKEENLFEWSKTVTNHPMPINIKLTPISDSFDSDDLKESYDKAIIYYSRLYGLSPHDTMQKDDKDIIKILTNADTVTKNSAPPINAQCPHGKVVMFGFSLKQNFWDNTNALKGYNIEVCEAGSNSCTSKQGSSNKYDTSYLYMECGDQPLPFSEQVISESTSTYNTVKCPNDYSILLGFGISSSSGRINSAEYVYSTPCIPGMKSCSLNMNNDNQKSYIYVLCVDTTIWSGVNNLALVALDGAHGKVNRAKKYSDGELVGTCPLDGTVLTGFKVEFHTSSPYVQTPFEKCAKSLKACSVHGSGHAIGIQNFKSLFIYMLCKNNK
modifications: bait human Fc-tagged dimer
B2: 87 (protein)
chain: LKKGNGDFIKKNGVFFQIDRDMNEPPYSVINVFYTESLLDDNLLNQLEKERKMGKYKTQNYFRKSLDNNKYFMEYSRKQKEQLEFLLE
modifications: bait human Fc-tagged dimer
B3: 72 (protein)
chain: SNHIKSVNRCFIPFISEYIYKQKNRKNNIAYDSSNSHYNDKIIPCGNYNKQLKYKINFCRNLYFNNKNEYNRICSRNKLNFHNIQTDNTIYKPKKKYYEVGKVREKIKMYTLFKDDKINTLKCNEEESVTSETINKHDSSVKVKGRRKKNIASNENIMNPNNKAVSSINTNLADSSNNKNDNSLNSKKNDNTLNSKKNDNTLNSKKNDNTLNSKNNNNALNSKNNNNALNSKKSNNAYNDKHIDHIIPEGKNKINNNIDVKHNINNKLNEINEEPYEDTHNKEENSANKNDNDEKRKEENNNIARRYIKNDQMSYNNINTNSNEYDKNAATLDETYIGKTFEGYVYSVNKNAACIKLKNINKYGLLFKNKANLGDDIEDMNDFFEKDQPVHVKILGINTKKNIFYLGNIIKYNENIKLSKGEYSKGLITKVCDSYCFIKVLKNGATGYLHKSKLFCMNDKEKKNNDNQNYDNPNNDNPNYDNQNYDNQNYNNPNYDHPNYDNQNYDNQNYNNPNNDYSTSQLYNSDNLQMDFIYKLQFTKIFNIWDIIDVEILGTPQNDYKSNYILTIPRGSKTFKKILNYLNVLKENEDINNIQYKGDYIYSIDNNKNDNIIDSDINNHHINNKKKKKNLYDIQNNMNHAPFNKFHTEDEYLFNDHVQENVHTFYEKNKKYKITYDKENNHKMNKAYYLKKNKELPFNNKFKKIIKNIYDLPNTISLSMLSKTIKIPLASIKKYFIIHENKEYNSAYKINSEQIKRICQHFKIDCNVEQRDDNVVTKVNGATKDCQEKVFKNVAQDRLKEGEQERVIKVEAKIKNDEMVMQEQKDTKEEKHMDVQFIEEKDINVQHINVQDMDVQDMDVQDINVQDMDVQNINVQDINIQDMDVQNINNAITLNKATSCQTDESRDAPGGDQNEALDEKDSMEKSKEKKKKKGKSRKKNKDTNLALKSDSIQKSKTTLDDKKRNVVVTFIGHINHGKTSLFDYICKTNEQKKEYGLITQNIRAFKATVRNNFAFTLVDTPGHEAFMPMRSRGVKISDLSILVISGDEGIQEQTVECIKLIKEFNIKIIIAITKVDIPNVDVDRIINDLLYHDITTELNGGEIQVVECSIYKEESIDKLLDAIYLESEFLNLQTNPDKKHEQAQGVVLDSYIDKNGIVSINLLQNGVLNINDHFYTGSSYGKVKILKDHLNKNIKSAYPSDPIKIIGYNKNSVPVAGDKFYVVENEALAKEIAEHNKNKMLTMEINNFAYDQTNMNRYKDFIISRENKIGGSSGILGENNLKNDIDGNMARDDNMARDDNMASDDNMARDGNRANNDNIASDDNMANDYDKIKETKMYTNNKAFQKDDFLKIHLNNANENVINMDPSTHIGKNEIKTIYSNYIIKCDKQGSIEVLKNCMLKLQKEDSICKIKNKIIYADIGNVASSDIKYATSFNAAIIAFGVKLSNDIKGSKNSKGSKNHNNYPIIYSNVLYELIENVEKEMEKKLSKKPMGELKGTAQILKVFNIAKLGKVAGCIVKKGTISINSNIRILRNDKVIYMGKIISIKIVKEEKTQVTEADECGIGFDNFLDFEPNDIIEAYEN
modifications: bait human Fc-tagged dimer
B4: 83 (protein)
chain: NKNLKCNFYYNNNNLATYVIKHNRFLSEYQSNFLGGGYSAALKLVNSKKSGTNVNTKYNSENTNTNNNIPESSSTYTNTRLAANNAATTSTTKVTDNNKANIKLTGNNAATINTNSAENTAATKKVTENVITNQILTGNNNAATNTATTEHNNNINTNTNSAENTAATKKVTENVITNQILTGNNNAATNTATTEHNNNINTNTNSADNSNTNTNLADNTATTKKLTDNINTAQNLATSTNTATVSTDNNNINTKPIDNNNADIKSTDNYNTGTKETDNKNTDIKATDNNNIATTTDNTNTNVISTDNSKTNVISTDNSKTNTISTDNDNADTILTDNDNNADIILTDNNNADTISTDNDNADTKATDNNNNANTKATDNNNAKIISPDNNNAKTTSTDNNNNANTKATDNNNAKTISNDNNNAKTISTDNNNAKTISNDNNNANTISTDNNNNNANQYVFANNYNEATSDDELNKDSCDYSEEKENIKSMINAYLDKLDLETVRKIHSDISTCIEKKNNPRNQITHLNNLKNMYNIIKFIVVIYIAFNWAEVIYKYVGKLILAFALYMLIN
modifications: bait human Fc-tagged dimer
B5: 74 (protein)
chain: YNLNNDLSKNNNFALNTYVRKDDVEDDSKNEIVDNIQKMVDDFSDDIGFVKTSMREVLLDTEASLEEVSDHVVQNIAKYSLTIEEKLNLFDGLLEEFIENNKGLISNLAKRQQKLKGDKIKKVCDLILKKLKKLENVNKLIKYKIILKYGNKDNKKEMIQTLKNEEGLSDDFKNNLANYETEQNNDDIKEIELVNFISTNYDKFVVNLEDLNKELLKDLNMALS
modifications: bait human Fc-tagged dimer
B6: 2 (protein)
chain: DFFLRYRTGFIRSRLETYIGNSDVRYNKAFINNRLLNEHAHCDAWSEWSACSKTCDYGIKIRVKISTDQTKSKACSNIAESTICHEHICPRTFEEAEETYLHNKEKEKKKKFRTT
modifications: bait human Fc-tagged dimer
B7: 7 (protein)
chain: GIISGRINIAAEFHINIFVKDYFKKKKLTFVNFVSLCPKGFNIENNKCIPCPIGLYYSNSKSINQCIPCENYRKHSTTLYNSAKSKTECLCKPGYFLKDKRCVKCVAGFYKDQIGNFKCQGTCENTKMSIEVGAKNYEELKCTCKDGYFTEKKKKECIPCPFGNYCIYNPKVKYKADIIRCKNNKLTLHRGSKSPNDCLCSQGYYHDYKMDECELCNYDQYKSHISNDPCVPFISKSLVNQEYLINEPYFQYTNIYIKQTSNIIFAPKKGSKMFHEATLCETGYSYSMNKAICSICRYNNYCLGLDHSSIICPKNSITIKLKSVSALDCLCIKGYGRIIINTNQAFTISCIPCPYNTFQPHHSYGKCIPCPPHTFTKITGATSITECIPKMGYYNIAFEYIYEYSKQQMLNSIPHFIQYYHYFLKNQYEHFA
modifications: bait human Fc-tagged dimer
B8: 30 (protein)
chain: QDNKNKVEETHEEQGEMTQEEKDEIYSEFVDYDLNKDGLIDAEEIVVTLKNMKKADFINFFNKVDLDSSGTISIDEYMLFINSN
modifications: bait human Fc-tagged dimer
B9: 85 (protein)
chain: VKERNNGFPKRGEGRYLFGRNQMKSQDIEKNNKELSNKMDTQDSKQYITYLYHSSICQYCSKVTSMLENNDNVEIIKFKENNKIEDFGKFTKPIVVLLKNINKENSLERSIFYEELKRKGKKVQVPALEVNNIILFESDEIIKFYKKLLQKVSNDDKSSLQNRGNIKNDQKKNNADYDNDYDNDDNNDDNDDDDDNNYNNNNDDGYDYHTS
modifications: bait human Fc-tagged dimer
B10: 22 (protein)
chain: RGNQISKCVFYDKRNKDLKQVFYVPTNDVNMYKETIRKLLSREISLLEEPLNENSDSHNMANKKNVANFEEIKKNDENNNRKRKEMEEKLKYIEKYRNYAKGVLKNVEFKCENVDDLKSKVKCNLCVYTEIVNNKHIRQGQIIQIFMNECMYGFYYYDNINQYTQNNEYNNKALKDYNSAQKLDDIYFNIAKDISEGNVNGINFFKQQSSKYHPVCYVTE
modifications: bait human Fc-tagged dimer
B11: 45 (protein)
chain: GEEKLTKFDPVMIKEGELFGEVSYDCEYSGFLEIENDDILYYCFFVGEDDHNGLLLRKFHMDDMVWGIPMEVLITRKKINLYILTVDYILSKLILIYSFDEKIRITVFNNYMEESVMSEKISINYEILYKANMISYITYFYKNKKSLCVCGMNRNENILCTFSFDYGLTMKDDHTIEFFLKKKIPLGHYKMQVTFKETEVYFNLYNDLNEANFYELKCVKKQDEYICDIMNKIRETQEYNYKRYTYPSSEHNKYYNDHHNKQPQGKQGQQGGAPLPNLGEEENNFIYKHIVRNKYFQMIVFQKDQKCYLAWSFNSLNINDEITKEISSVPCSNVASYYRQERLIVTLKKNQLGSRNHFFLIYEKLTEKGVGCEFGVGGSLYVTKTFMNNACDMDINNMNVATTNYDEINFALIIPLSFQLNYATCFIWEENVDNNEERSSLYYLEEYTNEKEDIKVYTFYFYKYILIYKNFKKSTCTFESKNNEKLYISFRGDTYYKEYNCNILLDSCDFFLHTQSKINIAYDDDVWQVSEELYDGFVMYNGAYVSLYDVLSRSNAHGLIYIDGKENNAAINLNNIKNNNNNNNNNNNNNNAANNNNIANNANSNNAFGEHEKVITIIIPYGIPSTRTIKIEFLNKQNNEEKRWAYLRLQKNEYIMKKVIGINSADIFDLSYKYYKYNQEKIKFILNDFSETTYLGFICQTKEEIKKSLCTISLVDHSHKNMAINNLFKTNNHILPFLYDQSPPRKIQPYNQIISEFRFVLFKNFHLFLQENKINYILLKCMCSSSSSYINTQKNIELSYLITNEQVSHDFIHTPGILIRPRTNIAHNDYQKNNKGNHKGNNKANNKANDKDSNNNANNNANKNGNNHNDNNNNNQNKDIDINSNYAIHNNNEKVKRTKKKINDAPYDKQDEELPSYDFNDLLHEKKNGASVFDFNFVLFLFICITFF
modifications: bait human Fc-tagged dimer

target: FGFR4 ectodomain (Homo sapiens, UniProt P22455); test: AVEXIS normalised luminescence

Point of comparison: B1, binding score 0.914. Against it:
- B2 — higher, 1.61
- B3 — higher, 1.02
- B4 — higher, 1.24
- B5 — higher, 1.05
- B6 — higher, 1.02
- B7 — higher, 0.976
- B8 — higher, 1.55
- B9 — higher, 1.22
- B10 — lower, 0.879
- B11 — higher, 1.05
